{"source": "paper PMC9945442", "biological_target": "Argonaute 2 (AGO2) (human (Homo sapiens), UniProt Q9UKV8 1-859)", "sequence (Q9UKV8 whole entry)": "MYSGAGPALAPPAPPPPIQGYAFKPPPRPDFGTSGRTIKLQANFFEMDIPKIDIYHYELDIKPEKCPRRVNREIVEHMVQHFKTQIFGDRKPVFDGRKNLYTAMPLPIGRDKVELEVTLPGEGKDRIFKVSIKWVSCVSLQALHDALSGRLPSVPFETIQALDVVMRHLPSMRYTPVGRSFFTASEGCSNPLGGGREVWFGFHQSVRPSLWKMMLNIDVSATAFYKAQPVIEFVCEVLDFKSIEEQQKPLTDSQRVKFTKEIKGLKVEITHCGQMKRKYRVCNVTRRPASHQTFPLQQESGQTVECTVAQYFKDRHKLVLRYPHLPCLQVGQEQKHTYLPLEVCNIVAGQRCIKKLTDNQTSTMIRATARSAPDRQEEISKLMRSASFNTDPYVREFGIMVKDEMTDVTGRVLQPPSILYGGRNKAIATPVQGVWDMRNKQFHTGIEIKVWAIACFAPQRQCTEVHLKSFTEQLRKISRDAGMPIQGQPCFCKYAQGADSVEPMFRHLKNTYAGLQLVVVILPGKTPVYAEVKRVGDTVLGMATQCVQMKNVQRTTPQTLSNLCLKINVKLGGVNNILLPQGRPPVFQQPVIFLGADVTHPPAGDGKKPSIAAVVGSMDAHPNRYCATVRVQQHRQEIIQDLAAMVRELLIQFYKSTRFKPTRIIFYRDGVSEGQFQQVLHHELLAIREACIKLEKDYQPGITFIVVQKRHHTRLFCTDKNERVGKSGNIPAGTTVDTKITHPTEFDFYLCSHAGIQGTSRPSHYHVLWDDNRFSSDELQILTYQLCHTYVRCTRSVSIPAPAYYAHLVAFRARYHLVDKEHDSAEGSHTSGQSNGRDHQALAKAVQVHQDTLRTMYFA", "assay": "northern blot of purified loaded AGO2"}
{"binder": "UGGCAGUGUCUUAGCUGGUUGU (ssRNA)", "note": "[miR-34a]", "values": [{"measurement": "binding result", "value": "binds"}]}
